In PMC5693285:

Tests used:
[1] = test system: His-VtrAN-ZIPm (Vibrio parahaemolyticus RIMD2210633?; ZIP from Saccharomyces cerevisiae GCN4); test: EMSA; conditions: EMSA: 10 mM Tris-HCl pH 7.5, 100 mM KCl, 1 mM DTT, 1 mM EDTA, 0.2% NP-40, 10% glycerol, 100 ng/ml BSA; 4 nM probe, protein 0-400 nM; 30 min room temperature; 6%
[2] = test system: His-VtrAN (Vibrio parahaemolyticus RIMD2210633?); test: EMSA; conditions: EMSA: 10 mM Tris-HCl pH 7.5, 100 mM KCl, 1 mM DTT, 1 mM EDTA, 0.2% NP-40, 10% glycerol, 100 ng/ml BSA; 4 nM probe, protein 0-400 nM; 30 min room temperature; 6%

With “AGGGGCTATGCCCCTTTTATTTTTAATTCTCAAAGTTATCTTTTGAAGGTAATGGGGTATTTTTGAATAACTACATTGGGGTGTGATTGTCCTCGTTGTTTTTTAGTTTTTTTTAGGTTTTTTTTGCTGCTTTTCACGGTTTTATCATCACTTTATTCCGTGATTTAGCAAAATTCTTTTTAGGAGTTTGAAGTGGTCGTCTTCATTACCACGGCTTTAAGAACAGAGACGTTCTCTTTTAATCACAATAAATAACGAAGAAAAACTGTGAAAAGGGCTCAGCG (double strand) [vtrB upstream region 284 bp]” the binding [1] was > 400 nM and the binding [2] was > 400 nM.
